Test system: Escherichia coli TOP10
Experiment: shrunken log2 fold change of peptide-encoding DNA abundance (4.5 h post-induction vs induction); higher = less antimicrobial activity (less host growth inhibition)
Conditions: time post-induction: 4.5 h; library: site-saturation at positions 5, 18, 19, 20
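Further: peptides expressed intracellularly from a pBAD plasmid library in pooled LB shake-flask culture, induced with 0.3% L-arabinose, DNA abundance read by NGS, three biological replicates, DESeq2 with apeglm shrinkage.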

Sequence	shrunken log2 fold change
RRIRVRPPRLPRPRPRPGIDPRP	-0.143
RRIRRRPPRLPRPRPRPENLPRP	0.0548
RRIRDRPPRLPRPRPRPQFYPRP	-0.129
RRIRYRPPRLPRPRPRPHKCPRP	-0.259
RRIRFRPPRLPRPRPRPEFWPRP	0.264
RRIRWRPPRLPRPRPRPWSSPRP	-0.0663
RRIRRRPPRLPRPRPRPMPYPRP	-0.0473
RRIRDRPPRLPRPRPRPITEPRP	-0.0351
RRIRIRPPRLPRPRPRPHHEPRP	-0.0701
RRIRRRPPRLPRPRPRPCHEPRP	-0.0891
RRIRARPPRLPRPRPRPMFMPRP	0.749
RRIRHRPPRLPRPRPRPDQIPRP	-0.0166
RRIRVRPPRLPRPRPRPVCVPRP	-0.0658
RRIRMRPPRLPRPRPRPCMYPRP	0.051
RRIRGRPPRLPRPRPRPKHQPRP	0.441
RRIRNRPPRLPRPRPRPQFCPRP	-0.0424
RRIRIRPPRLPRPRPRPHACPRP	-1.14
RRIRWRPPRLPRPRPRPTPHPRP	0.427
RRIRSRPPRLPRPRPRPPILPRP	0.0371
RRIRHRPPRLPRPRPRPYWRPRP	-0.347
RRIRDRPPRLPRPRPRPFMDPRP	-0.112
RRIRPRPPRLPRPRPRPTNWPRP	0.214
RRIRNRPPRLPRPRPRPMCIPRP	-0.0106
RRIRTRPPRLPRPRPRPMMEPRP	-0.202
RRIRGRPPRLPRPRPRPPGQPRP	0.976

Sequence	shrunken log2 fold change
RRIRKRPPRLPRPRPRPKTMPRP	0.185
RRIRCRPPRLPRPRPRPSMSPRP	-0.273
RRIRARPPRLPRPRPRPYAHPRP	-0.149
RRIRPRPPRLPRPRPRPWTVPRP	-0.155
RRIRHRPPRLPRPRPRPRHIPRP	-0.39
RRIRWRPPRLPRPRPRPFCAPRP	0.23
RRIRMRPPRLPRPRPRPSSSPRP	0.0411
RRIRLRPPRLPRPRPRPRMGPRP	0.135
RRIRIRPPRLPRPRPRPLHNPRP	-0.563
RRIRYRPPRLPRPRPRPRYRPRP	-0.0551
RRIRARPPRLPRPRPRPIGNPRP	0.00902
RRIRKRPPRLPRPRPRPEKHPRP	0.401
RRIRSRPPRLPRPRPRPDWEPRP	-0.0106
RRIRMRPPRLPRPRPRPRCFPRP	0.397
RRIRYRPPRLPRPRPRPGDCPRP	-0.189
RRIRWRPPRLPRPRPRPSKKPRP	0.0769
RRIRFRPPRLPRPRPRPPDKPRP	0.151
RRIRMRPPRLPRPRPRPISAPRP	0.0396
RRIRTRPPRLPRPRPRPRWNPRP	0.969
RRIRVRPPRLPRPRPRPGWKPRP	0.169
RRIRIRPPRLPRPRPRPLCHPRP	-0.626
RRIRARPPRLPRPRPRPPKMPRP	0.298
RRIRNRPPRLPRPRPRPWWMPRP	-0.0246
RRIRHRPPRLPRPRPRPYFRPRP	-0.296
RRIRYRPPRLPRPRPRPGLIPRP	-0.0546

Sequence	shrunken log2 fold change
RRIRVRPPRLPRPRPRPEDHPRP	-0.021
RRIRARPPRLPRPRPRPWHIPRP	0.0256
RRIRMRPPRLPRPRPRPFHTPRP	0.0481
RRIRARPPRLPRPRPRPQFPPRP	0.0321
RRIRTRPPRLPRPRPRPVKEPRP	-0.0988
RRIRYRPPRLPRPRPRPEPDPRP	0.0689
RRIRLRPPRLPRPRPRPRTPPRP	0.376
RRIRIRPPRLPRPRPRPHNFPRP	-0.0684
RRIRKRPPRLPRPRPRPMDWPRP	0.256
RRIRARPPRLPRPRPRPYFFPRP	-0.225
RRIRNRPPRLPRPRPRPVHRPRP	-0.0338
RRIRHRPPRLPRPRPRPGFYPRP	-0.363
RRIRMRPPRLPRPRPRPGWTPRP	0.185
RRIRVRPPRLPRPRPRPYIVPRP	-0.00649
RRIRCRPPRLPRPRPRPAKSPRP	0.448
RRIRLRPPRLPRPRPRPPPQPRP	1.12
RRIRHRPPRLPRPRPRPHKKPRP	-0.0741
RRIRIRPPRLPRPRPRPGYCPRP	-0.371
RRIRSRPPRLPRPRPRPYNVPRP	0.00567
RRIRYRPPRLPRPRPRPDLYPRP	-0.0604
RRIRVRPPRLPRPRPRPFPCPRP	-0.00113
RRIRLRPPRLPRPRPRPEEEPRP	-0.00112
RRIRLRPPRLPRPRPRPLIDPRP	-0.258
RRIRLRPPRLPRPRPRPHGFPRP	0.000509
RRIRERPPRLPRPRPRPVVVPRP	-0.112

Sequence	shrunken log2 fold change
RRIRHRPPRLPRPRPRPVEIPRP	-0.0173
RRIRWRPPRLPRPRPRPQTWPRP	0.223
RRIRGRPPRLPRPRPRPQAIPRP	0.58
RRIRGRPPRLPRPRPRPDQQPRP	0.074
RRIRRRPPRLPRPRPRPKQAPRP	0.908
RRIRGRPPRLPRPRPRPTDPPRP	0.687
RRIRGRPPRLPRPRPRPNTIPRP	-0.184
RRIRIRPPRLPRPRPRPNTYPRP	-1.02
RRIRGRPPRLPRPRPRPCAPPRP	0.826
RRIRYRPPRLPRPRPRPITFPRP	-0.864
RRIRFRPPRLPRPRPRPAVLPRP	0.107
RRIRWRPPRLPRPRPRPDPVPRP	0.0369
RRIRVRPPRLPRPRPRPTGHPRP	0.0149
RRIRLRPPRLPRPRPRPQFYPRP	-0.727
RRIRVRPPRLPRPRPRPSTVPRP	-0.0673
RRIRHRPPRLPRPRPRPAHPPRP	0.175
RRIRRRPPRLPRPRPRPHELPRP	0.429
RRIRDRPPRLPRPRPRPRHEPRP	-0.000978
RRIRTRPPRLPRPRPRPDPAPRP	0.0522
RRIRKRPPRLPRPRPRPMFNPRP	-0.0523
RRIRLRPPRLPRPRPRPTCFPRP	-0.156
RRIRHRPPRLPRPRPRPYCRPRP	-0.0455
RRIRPRPPRLPRPRPRPNHCPRP	-1.08
RRIRMRPPRLPRPRPRPPSHPRP	0.622
RRIRQRPPRLPRPRPRPLWCPRP	-0.24

Sequence	shrunken log2 fold change
RRIRYRPPRLPRPRPRPYHHPRP	-0.0688
RRIRIRPPRLPRPRPRPHGFPRP	-0.383
RRIRVRPPRLPRPRPRPFEVPRP	-0.164
RRIRPRPPRLPRPRPRPHKFPRP	-0.547
RRIRSRPPRLPRPRPRPDIGPRP	-0.113
RRIRQRPPRLPRPRPRPQCFPRP	-1.14
RRIRARPPRLPRPRPRPMVEPRP	0.0234
RRIRCRPPRLPRPRPRPISQPRP	-0.544
RRIRIRPPRLPRPRPRPTSFPRP	-0.11
RRIRDRPPRLPRPRPRPKPMPRP	0.135
RRIRERPPRLPRPRPRPSCTPRP	-0.815
RRIRGRPPRLPRPRPRPCTCPRP	0.111
RRIRGRPPRLPRPRPRPKLLPRP	0.84
RRIRLRPPRLPRPRPRPWVAPRP	0.29
RRIRWRPPRLPRPRPRPDYYPRP	-0.218
RRIRVRPPRLPRPRPRPHQSPRP	-0.23
RRIRARPPRLPRPRPRPYTIPRP	-0.236
RRIRNRPPRLPRPRPRPPKWPRP	0.411
RRIRKRPPRLPRPRPRPDCCPRP	0.435
RRIRPRPPRLPRPRPRPWAVPRP	-0.227
RRIRVRPPRLPRPRPRPDQSPRP	-0.053
RRIRVRPPRLPRPRPRPNEEPRP	-0.00544
RRIRGRPPRLPRPRPRPKVGPRP	0.721
RRIRKRPPRLPRPRPRPFICPRP	0.0135
RRIRTRPPRLPRPRPRPSWSPRP	-0.196

Reference: the supplement of paper PMC9112550, “Optimization of the antimicrobial peptide Bac7 by deep mutational scanning” (BMC Biology, 2022)
